Results from article doi:10.1101/2021.02.22.432209 (bioRxiv, 2021).
Read-outs that look alike come from different tables or passages of the source.

B2: GABARAP (1-117), His8-TEV-GABARAP (natural protein)
chain: MKFVYKEEHPFEKRRSEGEKIRKKYPDRVPVIVEKAPKARIGDLDKKKYLVPSDLTVGQFYFLIRKRIHLRAEDALFFFVNNVIPPTSATMGQLYQEHHEEDFFLYIAYSDESVYGL

What was measured:
Experiment in all cases: SPR
[1] = target: B2
[2] = target: B2; remark: listed apart in the source
[3] = target: LC3B (1-125), His8-TEV-LC3B (human, UniProt Q9GZQ8 1-120)
[4] = target: T1, Biotinylated FLCN-8xGlycine-AviTag/FNIP2 (human, UniProt Q8NFG4;Q9P278, biotin on the AviTag)
[5] = target: T1, Biotinylated FLCN-8xGlycine-AviTag/FNIP2; remark: listed apart in the source

## EKGEVEESEYVVITVRNEP [FNIP2 peptide 558-576, wild type (Short)]
[1]
  Kd: 6200 ± 3000 nM

## GSKIITALEKGEVEESEYVVITVRNEP [FNIP2 peptide 550-576, wild type (Long)]
[1]
  Kd: 29 ± 2 nM

B1: GST-PreScission-p62 FIR 4P (domain or fragment)
chain: MESDNCSGGDDDWTHLSSKEVDPETGELQSLQMPESEGPEELDPEQEGPTGLKEA
[2]
  Kd: 670 ± 80 nM
[3]
  Kd: 820 ± 40 nM

## B2
[4]
  Kd: 0.071 ± 0.01 nM
[5]
  Kd: 0.3 ± 0.018 nM
